{"source": "paper PMC5809743", "biological_target": "FMDV protomer (VP0, VP3 and VP1) from full-length capsid precursor P1-2A processed by 3C protease (foot-and-mouth disease virus, strain O1 Manisa)", "assay": "sucrose density gradient sedimentation", "data": [{"substance": "FMDV protomer (VP0, VP3 and VP1) from full-length capsid precursor P1-2A processed by 3C protease (complex)", "values": [{"measurement": "reduction in pentamer formation with 17-DMAG, against no drug", "result": 50, "unit": "%"}, {"measurement": "stoichiometry N", "result": 5}]}]}
